# Measured values reported in the supplement of paper PMC7877785.
# ± gives the uncertainty stated by the source.
# Assay: self-splicing fitness, log relative to wild type (ln ratio); higher = more splicing; Tetrahymena group I intron in knt gene, E. coli kanamycin selection, DiMSum; sequences stand for … in CUCUCU…GGAGGGAAAAGUUAUCAGGCAUGCACCUGGUAGCUAGUCUUUAAACCAAUAGAUUGCAUCGGUUUAAAAGGCAAGACCGUCAAAUUGCGGGAAAGGGGUCAACAGCCGUUCAGUACCAAGUCUCAGGGGAAACUUUGAGAUGGCCUUGCAAAGGGUAUGGUAAUAAGCUGACGGACAUGGUCCUAACCACGCAGCCAAGUCCUAAGUCAACAGAUCUUCUGUUGAUAUGGAUGCAGUUCACAGACUAAAUGUCGGUCGGGGAAGAUGUAUUCUUCUCAUAAGAUAUAGUCGGACCUCUCCUUAAUGGGAGCUAGCGGAUGAAGUGAUGCAACACUGGAGCCGCUGGGAACUAAUUUGUAUGCGAAAGUAUAUUGAUUAGUUUUGGAGUACUCGUGGUCG
# Summary of the method: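 DiMSum derived fitness as the error-weighted combination of fold changes across replicates, kanamycin versus no kanamycin, normalised to wild type. E. coli BL21(DE3) held the library, which randomised all eight P1ex-region intron nucleotides within the knt kanamycin-resistance gene on pET-22b(+). Six replicate transformations grew overnight at 37°C or 30°C on LB agar with or without 25 μg/mL kanamycin, also containing 100 μg/mL carbenicillin, 50 μM IPTG and 0.2% rhamnose, and pooled colonies were amplicon-sequenced on an Illumina HiSeq 2500.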
Sequence,self-splicing fitness (ln) (30 °C),self-splicing fitness (ln) (37 °C)
GGGCAGCAAUAUUACGGAGA,-4.44 ± 0.46,-2.56 ± 0.22
ACCCAGCAAUAUUACGGGGU,-3.58 ± 0.14,-3 ± 0.14
AUCAAGCAAUAUUACGGCCC,-0.747 ± 0.31,–
GUCGAGCAAUAUUACGCUUC,-5.12 ± 0.38,-4.17 ± 0.33
AAGCAGCAAUAUUACGUGAG,-1.07 ± 0.045,-0.437 ± 0.066
UACUAGCAAUAUUACGCGCC,–,-1.37 ± 0.37
GUUAAGCAAUAUUACGGACA,-0.907 ± 0.21,-1.18 ± 0.21
UAUCAGCAAUAUUACGUACG,-0.641 ± 0.087,0.404 ± 0.11
CUCCAGCAAUAUUACGGAAC,-4.55 ± 0.46,-2.33 ± 0.21
CGGUAGCAAUAUUACGUGAG,-0.593 ± 0.059,0.467 ± 0.092
UCGCAGCAAUAUUACGAAAG,–,-2.04 ± 0.36
UUUUAGCAAUAUUACGUCCC,–,-1.78 ± 0.48
UGACAGCAAUAUUACGUUCA,-0.939 ± 0.076,0.0202 ± 0.08
CCUUAGCAAUAUUACGUGCA,-3.43 ± 0.23,-3.76 ± 0.28
AGGUAGCAAUAUUACGGAAC,-3.629 ± 0.035,-2.2 ± 0.042
UCUGAGCAAUAUUACGCGAU,-3.14 ± 0.27,-3.02 ± 0.25
CCUAAGCAAUAUUACGUAAA,-3.49 ± 0.24,-2.43 ± 0.16
AUCGAGCAAUAUUACGAGAU,-2.58 ± 0.13,-2.01 ± 0.17
UAUGAGCAAUAUUACGACGG,-2.02 ± 0.13,-1.83 ± 0.19
GUUGAGCAAUAUUACGACCU,-2.63 ± 0.16,-1.56 ± 0.17
CGAUAGCAAUAUUACGAUCC,-0.714 ± 0.13,0.104 ± 0.19
GGCAAGCAAUAUUACGCGCG,-0.499 ± 0.065,-0.495 ± 0.081
AGGGAGCAAUAUUACGGCUU,-3.29 ± 0.25,-1.11 ± 0.35
ACACAGCAAUAUUACGUUGC,-3.87 ± 0.11,-2.58 ± 0.12
GUAAAGCAAUAUUACGACUC,0.441 ± 0.1,1.06 ± 0.15
GCUUAGCAAUAUUACGGGCA,-2.24 ± 0.27,-0.778 ± 0.19

Sequence,self-splicing fitness (ln) (30 °C),self-splicing fitness (ln) (37 °C)
UACCAGCAAUAUUACGGAUC,-1.46 ± 0.058,0.242 ± 0.084
UGUUAGCAAUAUUACGCCAG,-1.36 ± 0.23,-1.76 ± 0.35
GGAAAGCAAUAUUACGACUU,-0.349 ± 0.1,-0.0565 ± 0.11
GCCGAGCAAUAUUACGCGAU,-2.66 ± 0.2,-3.09 ± 0.37
ACACAGCAAUAUUACGCCAC,-3.38 ± 0.33,-2.66 ± 0.31
GCGAAGCAAUAUUACGAGUU,-3.19 ± 0.2,-2.16 ± 0.28
UACUAGCAAUAUUACGUCUC,-3.59 ± 0.32,-2.93 ± 0.31
UGAAAGCAAUAUUACGCAAA,-2.12 ± 0.11,-0.812 ± 0.11
UAGCAGCAAUAUUACGUACC,-1.91 ± 0.38,–
UUAGAGCAAUAUUACGACUC,-2.73 ± 0.39,–
AUUUAGCAAUAUUACGUAAU,-0.35 ± 0.082,-0.32 ± 0.12
GUCCAGCAAUAUUACGUGUA,-0.96 ± 0.073,0.159 ± 0.077
UCAAAGCAAUAUUACGAACU,-3.14 ± 0.19,-1.97 ± 0.23
CUUUAGCAAUAUUACGGCUU,-3.62 ± 0.32,–
GUAUAGCAAUAUUACGAUCU,-1.16 ± 0.19,0.209 ± 0.21
ACUAAGCAAUAUUACGGAUA,-2.38 ± 0.16,-2.54 ± 0.2
GACCAGCAAUAUUACGGGAA,-0.695 ± 0.06,-0.941 ± 0.067
AACUAGCAAUAUUACGAAGC,-2.35 ± 0.4,-0.29 ± 0.35
UAACAGCAAUAUUACGAAAU,-3.46 ± 0.14,-2.52 ± 0.18
GCCGAGCAAUAUUACGCCUU,-3.44 ± 0.27,-2 ± 0.36
AGCCAGCAAUAUUACGUGCA,-0.689 ± 0.068,0.0293 ± 0.087
UGUGAGCAAUAUUACGUCAG,-1.88 ± 0.3,-1.02 ± 0.24
AAUCAGCAAUAUUACGUGUG,-0.753 ± 0.053,-0.737 ± 0.067
UUAAAGCAAUAUUACGAAUG,-0.609 ± 0.096,0.0465 ± 0.14
CGCCAGCAAUAUUACGUGCG,-3.99 ± 0.26,-2.33 ± 0.22
CCGAAGCAAUAUUACGAAGC,–,-1.59 ± 0.24

Sequence,self-splicing fitness (ln) (30 °C),self-splicing fitness (ln) (37 °C)
AACGAGCAAUAUUACGGCGC,-2.14 ± 0.18,-1.31 ± 0.16
UGACAGCAAUAUUACGAUCU,-0.412 ± 0.07,0.277 ± 0.082
CCCCAGCAAUAUUACGGGAA,-2.29 ± 0.096,-1.64 ± 0.088
GCUUAGCAAUAUUACGAUAU,-1.67 ± 0.18,-0.39 ± 0.17
UCUUAGCAAUAUUACGCCUG,-2.25 ± 0.24,-1.51 ± 0.27
GGGAAGCAAUAUUACGUGGA,-2 ± 0.17,-2.34 ± 0.29
GCACAGCAAUAUUACGGCUG,-3.49 ± 0.13,-2.4 ± 0.14
UACAAGCAAUAUUACGAAUA,-1.56 ± 0.087,-0.567 ± 0.1
GCCCAGCAAUAUUACGGGCU,-3.75 ± 0.16,-2.81 ± 0.15
AUGAAGCAAUAUUACGCAAC,-1.28 ± 0.16,-1.13 ± 0.16
CUAAAGCAAUAUUACGCGAU,-0.384 ± 0.051,0.349 ± 0.062
GUGCAGCAAUAUUACGAUAG,-2.3 ± 0.22,-2.21 ± 0.27
AUGUAGCAAUAUUACGGAUA,-1.43 ± 0.16,-1.83 ± 0.28
CAGUAGCAAUAUUACGGAUA,-1.58 ± 0.32,-2.79 ± 0.38
AUCGAGCAAUAUUACGUGAG,-1.78 ± 0.11,-1.53 ± 0.15
CUGUAGCAAUAUUACGCUAC,-3.21 ± 0.35,-1.39 ± 0.32
CAGUAGCAAUAUUACGUUUA,-3.19 ± 0.23,-3.02 ± 0.25
CAUAAGCAAUAUUACGUCAC,-3.86 ± 0.29,–
GCUGAGCAAUAUUACGACGA,–,-0.876 ± 0.39
CACGAGCAAUAUUACGAUAU,-2.64 ± 0.15,-2.19 ± 0.28
CAAAAGCAAUAUUACGUUGA,-3.14 ± 0.14,-2.32 ± 0.12
GUGAAGCAAUAUUACGGCCA,-0.0192 ± 0.11,0.468 ± 0.15
CAUCAGCAAUAUUACGACUG,-0.425 ± 0.084,-0.238 ± 0.098
AGUAAGCAAUAUUACGCUAU,-4.08 ± 0.32,-1.41 ± 0.13
CUAAAGCAAUAUUACGUCAU,-4.85 ± 0.31,-2.78 ± 0.23
UGCUAGCAAUAUUACGUACG,-0.494 ± 0.09,0.0248 ± 0.1
